± gives the standard deviation of the averaged measurements.
test system: ATP; experiment: switch fluorescence ratio, 500 uM ATP over buffer (Cy3 cluster intensity, sum of 5 cycles each) (fold (ratio)); higher = stronger signal-on switching upon ATP binding; sequences stand for … in TCGTCGGCAGCGTCAGATGTGTATAAGAGACAGTTTTTTTTTTTTTTTTTTTTTTTTT…TC; conditions: aptamer strand: ATP DNA aptamer (quencher-CACCTGGGGGAGTATTGCGGAGGAAGG + anchor), 100 nM annealed; ATP concentration: 500 uM
Outline: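 Five buffer/ATP imaging cycles were run on Cy3-labelled switching-strand clusters on a modified Illumina MiSeq flow-cell, with NaOH stripping and re-annealing between cycles. In each cycle, clusters annealed to 100 nM quencher-labelled ATP aptamer were imaged in selection buffer, then after 15 min with 500 uM ATP at 22 °C. Per cluster, the fluorescence ratio is summed target-cycle over summed buffer-cycle Cy3 intensity, averaged per switch-domain sequence. Only clusters within 100-1000 RFU were kept.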
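Also: ATP exposure 15 min at 22 °C before imaging.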

Row | Sequence | switch fluorescence ratio
1 | GGCGAGAACG | 0.986 ± 0.018
2 | GGCGCAACAG | 1.44 ± 0.14
3 | GGCGCAACCG | 1.09 ± 0.015
4 | GGCGCAAGGA | 2.41 ± 1.9
5 | GGCGCAGTGG | 1.11 ± 0.041
6 | GGCGCCTTTT | 0.988 ± 0.033
7 | GGCGCGGAGG | 0.992 ± 0.019
8 | GGCGCTGGAT | 1.02 ± 0.019
9 | GGCGGAAGAA | 1.07 ± 0.013
10 | GGCGGCGAGG | 1.02 ± 0.011
11 | GGCGGCGCAA | 1.51 ± 0.16
12 | GGCGGCGCTG | 1.03 ± 0.028
13 | GGCGGGAAAG | 0.983 ± 0.037
14 | GGCGGGATCT | 1.21 ± 0.26
15 | GGCGGGGTAG | 0.996 ± 0.032
16 | GGCGTAATCT | 1.04 ± 0.037
17 | GGCGTACTTG | 1.01 ± 0.012
18 | GGCGTAGGAG | 0.997 ± 0.021
19 | GGCGTATCAG | 0.979 ± 0.051
20 | GGCGTGGCGG | 0.994 ± 0.019
21 | GGCGTTGCGG | 0.9849 ± 0.0058
22 | GGCGTTTTCG | 0.997 ± 0.044
23 | GGCTAAGACT | 0.988 ± 0.024
24 | GGCTACTGAG | 1.08 ± 0.066
25 | GGCTAGTGAC | 1 ± 0.03
26 | GGCTATGTGG | 0.987 ± 0.03

Row | Sequence | switch fluorescence ratio
27 | GGCTATTTTG | 0.999 ± 0.073
28 | GGCTCGGCAG | 1.05 ± 0.043
29 | GGCTCGGTAC | 1.24 ± 0.13
30 | GGCTCTTAGG | 0.975 ± 0.03
31 | GGCTGAAAGT | 0.991 ± 0.016
32 | GGCTGACATT | 0.979 ± 0.046
33 | GGCTGACCGG | 1 ± 0.048
34 | GGCTGACGTC | 1 ± 0.038
35 | GGCTGAGGCG | 0.965 ± 0.024
36 | GGCTGATGCA | 0.938 ± 0.034
37 | GGCTGCAATG | 1.39 ± 0.069
38 | GGCTGGAAAC | 1.23 ± 0.22
39 | GGCTGGGCTG | 0.991 ± 0.029
40 | GGCTGGGGCA | 0.979 ± 0.021
41 | GGCTGGTGTG | 1.02 ± 0.029
42 | GGCTGTTAAA | 0.978 ± 0.019
43 | GGCTTAAGGG | 0.972 ± 0.025
44 | GGCTTAATGA | 0.971 ± 0.029
45 | GGCTTAGGGG | 0.979 ± 0.022
46 | GGCTTATAGG | 1.02 ± 0.036
47 | GGCTTCACGA | 1.07 ± 0.014
48 | GGCTTCTGCT | 0.959 ± 0.022
49 | GGCTTGAAGG | 1.03 ± 0.032
50 | GGCTTGGCGT | 0.98 ± 0.034
51 | GGCTTGGGTT | 1.01 ± 0.039
52 | GGCTTTATTC | 0.984 ± 0.044

Row | Sequence | switch fluorescence ratio
53 | GGCTTTCCTG | 1.1 ± 0.089
54 | GGCTTTGAGG | 1.01 ± 0.019
55 | GGCTTTGCCC | 0.9669 ± 0.0028
56 | GGCTTTTACG | 1.03 ± 0.042
57 | GGCTTTTGTG | 0.974 ± 0.036
58 | GGCTTTTTTT | 0.994 ± 0.029
59 | GGGAAAAAAG | 0.994 ± 0.026
60 | GGGAAAAACA | 1.02 ± 0.05
61 | GGGAAAAAGA | 1.03 ± 0.012
62 | GGGAAAAATA | 1.24 ± 0.51
63 | GGGAAAAGA | 1.04 ± 0.018
64 | GGGAAAATGG | 1.01 ± 0.016
65 | GGGAAACAAA | 0.96 ± 0.059
66 | GGGAAACAAT | 1.55 ± 0.91
67 | GGGAAAGATG | 0.986 ± 0.042
68 | GGGAAAGGGC | 0.961 ± 0.021
69 | GGGAAAGGGT | 1 ± 0.014
70 | GGGAAATAAA | 0.988 ± 0.013
71 | GGGAAATAGT | 0.9877 ± 0.0057
72 | GGGAAATATT | 1.06 ± 0.14
73 | GGGAAATCAT | 0.997 ± 0.015
74 | GGGAAATTAT | 0.9917 ± 0.0045
75 | GGGAACTTGG | 0.986 ± 0.0099
76 | GGGAAGAAAT | 1 ± 0.037
77 | GGGAAGACGA | 1.01 ± 0.014
78 | GGGAAGAGAG | 0.985 ± 0.021

Row | Sequence | switch fluorescence ratio
79 | GGGAAGGCCA | 0.973 ± 0.024
80 | GGGAAGGGGC | 1.02 ± 0.018
81 | GGGAAGGGTA | 1 ± 0.033
82 | GGGAAGGTTT | 1.01 ± 0.012
83 | GGGAAGTTTG | 1 ± 0.038
84 | GGGAATAGAT | 0.9835 ± 0.002
85 | GGGAATAGCT | 0.999 ± 0.03
86 | GGGAATAGGG | 1.01 ± 0.02
87 | GGGAATATTA | 1.04 ± 0.023
88 | GGGAATCGTA | 1.04 ± 0.015
89 | GGGAATCGTG | 0.983 ± 0.012
90 | GGGAATGGGT | 1.01 ± 0.014
91 | GGGAATTACT | 1.87 ± 1.1
92 | GGGAATTTAA | 1.02 ± 0.019
93 | GGGAATTTGC | 1 ± 0.036
94 | GGGAATTTGT | 0.9942 ± 0.0096
95 | GGGAATTTTT | 1 ± 0.053
96 | GGGACAAGAT | 0.999 ± 0.026
97 | GGGACACGA | 0.988 ± 0.024
98 | GGGACAGAGG | 0.988 ± 0.0047
99 | GGGACAGCCT | 1.01 ± 0.017
100 | GGGACCGGCA | 1.01 ± 0.029
101 | GGGACCTTGT | 1.01 ± 0.064
102 | GGGACGATTT | 0.995 ± 0.017
103 | GGGACGGGGC | 1.06 ± 0.041
104 | GGGACGGTAG | 1.04 ± 0.034

Row | Sequence | switch fluorescence ratio
105 | GGGACTCCAA | 1.24 ± 0.35
106 | GGGACTGGGA | 1 ± 0.031
107 | GGGACTTAGC | 1.02 ± 0.022
108 | GGGAGAACGG | 0.977 ± 0.046
109 | GGGAGAAGAG | 0.979 ± 0.036
110 | GGGAGAAGGG | 0.95 ± 0.023
111 | GGGAGAGAAT | 1.005 ± 0.0058
112 | GGGAGAGACT | 1.03 ± 0.014
113 | GGGAGAGGGC | 0.991 ± 0.013
114 | GGGAGATAGA | 0.982 ± 0.052
115 | GGGAGATGAC | 1.01 ± 0.022
116 | GGGAGGAGCA | 1.01 ± 0.073
117 | GGGAGGAGGT | 0.98 ± 0.024
118 | GGGAGGATTT | 0.987 ± 0.013
119 | GGGAGGCCGT | 1.04 ± 0.027
120 | GGGAGGCTCG | 1 ± 0.0082
121 | GGGAGGGGAG | 0.981 ± 0.019
122 | GGGAGGGGTT | 1.01 ± 0.04
123 | GGGAGGGTTG | 0.981 ± 0.031
124 | GGGAGGTATT | 0.99676 ± 0.00098
125 | GGGAGTGAGA | 1.03 ± 0.035
126 | GGGAGTGAGG | 1.01 ± 0.011
127 | GGGATAAGAA | 0.992 ± 0.02
128 | GGGATAGGCT | 1.02 ± 0.021
129 | GGGATATAAT | 1.02 ± 0.022
130 | GGGATATGTT | 0.9921 ± 0.0071

Row | Sequence | switch fluorescence ratio
131 | GGGATCATTA | 0.983 ± 0.02
132 | GGGATCCTCC | 1.027 ± 0.006
133 | GGGATCGGGA | 0.995 ± 0.013
134 | GGGATCGTAA | 0.987 ± 0.016
135 | GGGATCGTTG | 0.965 ± 0.017
136 | GGGATCTGAA | 0.969 ± 0.026
137 | GGGATCTTGA | 1.07 ± 0.051
138 | GGGATGAATA | 0.982 ± 0.042
139 | GGGATGACGG | 0.975 ± 0.036
140 | GGGATGAGAG | 1 ± 0.04
141 | GGGATGAGGA | 0.9848 ± 0.0044
142 | GGGATGCGG | 0.9609 ± 0.0064
143 | GGGATGGCAG | 0.9816 ± 0.0059
144 | GGGATGGCTG | 1.01 ± 0.055
145 | GGGATGGGAT | 0.978 ± 0.037
146 | GGGATGGGGA | 1.02 ± 0.032
147 | GGGATGGGTT | 0.989 ± 0.025
148 | GGGATGGTTT | 0.988 ± 0.028
149 | GGGATTAGAT | 0.982 ± 0.013
150 | GGGATTATAT | 1.02 ± 0.032
151 | GGGATTATGT | 0.97 ± 0.015
152 | GGGATTCGCA | 0.99 ± 0.053
153 | GGGATTCGGG | 1.02 ± 0.022

— the supplement of paper PMC10126150
